The results in this text go back to CN110305216A (WUXI ZHIKANG HONGYI BIOTECHNOLOGY CO LTD, dated 2019).

One assay deals with T1, 人TIM-1 (human, UniProt Q96D42 21-295, limits assumed).
T1 sequence (looked up): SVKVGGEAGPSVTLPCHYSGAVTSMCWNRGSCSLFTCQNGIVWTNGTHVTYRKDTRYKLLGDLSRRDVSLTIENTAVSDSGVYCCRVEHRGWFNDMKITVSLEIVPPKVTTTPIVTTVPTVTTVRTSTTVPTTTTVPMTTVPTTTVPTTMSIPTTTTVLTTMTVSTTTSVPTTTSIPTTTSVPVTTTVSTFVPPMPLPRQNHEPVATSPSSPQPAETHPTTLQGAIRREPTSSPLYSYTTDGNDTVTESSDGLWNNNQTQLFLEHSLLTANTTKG
In words: ELISA, plate coated with human TIM-1. For orientation: An ELISA detects its analyte on a solid surface through an enzyme-linked reagent.

In a further assay the target is T2, 人TIM-4 (human, UniProt Q96H15 25-314, limits assumed).
T2 sequence (looked up): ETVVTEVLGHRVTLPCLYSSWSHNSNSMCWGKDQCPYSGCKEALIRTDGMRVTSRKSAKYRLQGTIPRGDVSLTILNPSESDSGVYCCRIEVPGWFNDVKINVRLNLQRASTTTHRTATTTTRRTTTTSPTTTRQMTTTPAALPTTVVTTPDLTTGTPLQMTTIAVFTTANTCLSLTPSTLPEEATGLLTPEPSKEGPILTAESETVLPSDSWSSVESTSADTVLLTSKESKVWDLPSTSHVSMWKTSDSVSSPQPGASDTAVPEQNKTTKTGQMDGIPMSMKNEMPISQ
In words: ELISA, plate coated with human TIM-4.

B1: W3402-2.131.17-z3 (antibody, V domains shown)
VH: QVQLQESGPGLVKPSETLSLTCTVSGFSLTNYGVGWIRQPPGKGLEWIGIMTSGGSTYYNSALRARVTINRDTSKNQFSLKLSSVTAADTAVYYCTRDGTTVETLFDYWGQGTMVTVSS
VL: DIVMTQTPLSLSVTPGQPASISCRSSQSLSDSAGITYLYWYLQKPGQSPQLLIYLASNLGSGVPDRFSGSGSGTDFTLKISRVEAEDVGVYYCMQGIHVPLTFGQGTKLEIK
notes: Humanized monoclonal antibody with a kappa light chain; also called W3402-z3; 人源化变体W3402-z3
Regarding B1, the binding result with 人TIM-1 and with 人TIM-4 was “no binding” throughout.
